According to patent US20160130329A1 (UNIVERSITY OF CHICAGO, published 2016):
Numbering of substitutions follows the chain as printed. One block for each binder: values may come before it. Where no end group is shown, it is not given here. [ ]: non-standard residue; d: D form. Lys(Me3) = C[N+](C)(C)CCCC[C@H](N)C(=O)O

What was measured:
H3K4me3 peptide [1] = target: T1, H3K4me3 peptide (also: biotinylated, site not given here); experiment: phage ELISA [A]
T1 peptide: ART[Lys(Me3)]QTARKSTGGYCD

H3K27me3 peptide = target: T2, H3K27me3 peptide (trimethyl-lysine at K27 (histone H3 numbering); biotinylated through the GYCD tag); experiment: phage ELISA [A]
T2 peptide: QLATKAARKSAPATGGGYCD

H4K20me3 peptide [2] = target: T3, H4K20me3 peptide (trimethyl-lysine at K20 (histone H4 numbering); biotinylated through the GYCD tag); experiment: phage ELISA [A]
T3 peptide: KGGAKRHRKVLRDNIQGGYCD

H3K36me3 peptide [3] = target: T4, H3K36me3 peptide (K(me3) at H3 K36; K(biotin) near the C-terminus, as printed: SAPATGGVK-K(me3)-PHRYRPGG-K(biotin)-D); experiment: peptide IP assay (FIG. 8B)
T4 peptide: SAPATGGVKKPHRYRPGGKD

H3K56me3 peptide [4] = target: T5, H3K56me3 peptide (K(me3) at H3 K56; K(biotin) near the C-terminus, as printed: LREIRRYQ-K(me3)-STELLIRGG-K(biotin)-D); experiment: peptide IP assay (FIG. 8B)
T5 peptide: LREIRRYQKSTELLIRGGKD

H3K4me3 peptide [5] = target: T1, H3K4me3 peptide; experiment: quantitative peptide IP assay
H3K4me3 peptide [6] = target: T1, H3K4me3 peptide; experiment: peptide IP assay (antibody on beads, flow cytometry)
H3K4me3 peptide [7] = target: T1, H3K4me3 peptide; experiment: quantitative peptide IP assay, biotinylated Fab on streptavidin beads, flow cytometry
[8] = target: T6, cross-linked chromatin from HEK293T cells; experiment: cross-linked ChIP from HEK293T cells followed by qPCR
T6 construct: A protein-DNA complex

H3K4me3 peptide [9] = target: T1, H3K4me3 peptide; experiment: peptide IP assay (antibody on beads, flow cytometry)
H4K20me3 peptide [10] = target: T3, H4K20me3 peptide; experiment: as above
H3K36me3 peptide [11] = target: T4, H3K36me3 peptide; experiment: as above
H3K56me3 peptide [12] = target: T5, H3K56me3 peptide; experiment: as above

binding result (H3K4me3 peptide [1]): no binding (tested: 100 nM peptide)
binding result (H3K27me3 peptide): no binding (tested: 100 nM peptide)
binding result (H4K20me3 peptide [2]): no binding (tested: 100 nM peptide)
B1: 9H2 (scFv)
scFv: EVQLVETGGGVVQPGRSLRLSCTASGFTFRDHWMSWVRQAPGKGLEWVADIDQEGRWGYYLDAVKGRFTISRDNAKSSLYLQMNSLGAEDTAVYYCARDFLVGFGWHFDLWGRGTLVTVSSSYVLTQPPSVSVAPGQTARITCGGTNIGDISVHWYQQRPGQAPLVVVYDDSDRPSGIPERFSGSNSGNTATLTISRVEAGDEADYYCQVWDDSINAYVFGTGTKVTVL

binding result (H3K36me3 peptide [3]): no binding
binding result (H3K56me3 peptide [4]): no binding
fold increase in affinity compared with the lead antibody (scFv 4-5) (H3K4me3 peptide [5]): 360 fold
Kd (H3K4me3 peptide [6]): 20 nM
Kd (H3K4me3 peptide [7]): 16 nM
B2: 304M3-A (Fab, V domains shown)
VH: EVQLVETGGGVVQPGRSLRLSCTASGFTFRDYWMSWVRQAPGKGLEWVADINQDGSALYYVDAVKGRFTISRDNAKSSLYLQMNSLGAEDTAVYYCARDLIYGFGWHFDLWGRGTLVTVSS
VL: not shown
notes: Produced and characterized in the same manner as 309M3-A: biotinylated Fab with a biotinylation acceptor peptide at the C-terminus of the heavy chain; also called recombinant anti-H3K4me3 antibody; 304M3-A antibody

binding result (H3K27me3 peptide): no binding (tested: 100 nM peptide)
ChIP enrichment relative to pAb-056-050 (lot A93-0042) [8]: ~3 fold
binding result (H3K4me3 peptide [9]): no binding (tested: 500 nM)
binding result (H4K20me3 peptide [10]): no binding (tested: 500 nM)
binding result (H3K36me3 peptide [11]): no binding (tested: 500 nM)
binding result (H3K56me3 peptide [12]): no binding (tested: 500 nM)
B3: 309M3-A (Fab, V domains shown)
VH: B2 VH with Y32H, Q53G, G55S, S56I, A57L, L58E, L100F, I101H, Y102R, F104Y
VL: not shown
notes: also called recombinant anti-H3K9me3 antibody; 309M3-A antibody
